Ends that are not written are not given here.
Tests used:
A1PI [1] = target: T1, A1PI (Homo sapiens, UniProt P01009); test: A1PI yield from dialyzed (aqueous) Effluent II+III; assay type: binding; conditions: 4° C.
T1 construct: Human plasma is currently the only approved source of therapeutic AlPI
Summary of the method: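 Effluent II+III was dialyzed at 4° C against equilibration buffer (15,000 MWCO) to remove ethanol. It was then applied under the same binding conditions as neat feed, and A1PI was tracked by nephelometry in the 1M NaCl and acid eluates.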

A1PI [2] = target: T1, A1PI; test: A1PI purification from 5 mg hSA + 1 mg A1PI on peptide column, A1PI mass balance; assay type: binding; conditions: A1PI, 5 mg hSA + 1 mg A1PI; for Mass Protein per Eluate Fraction, 1M NaCl / Mass Protein per Eluate Fraction, 2% Acetic Acid / Mass Protein per Eluate Fraction, Flow: * Below detection limit; for Percent Eluted by Fraction, 1M NaCl / Percent Eluted by Fraction, 2% Acetic Acid / Percent Eluted by Fraction, 3M NaCl / Percent Eluted by Fraction, Flow: relative to total loaded
Summary of the method: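 Mass balance by immunonephelometry of fractions from step elutions (1M NaCl, 3M NaCl, 2% acetic acid, neutralised with Tris) at 865 μl/min. Sample was a mixture of 1 mg A1PI and 5 mg hSA held 10 min on peptide-derivatised Toyopearl columns (0.1 mmole/g) at 4 °C or 20 °C.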

A1PI [3] = target: T1, A1PI; test: A1PI binding on peptide-resin column, injection of 1 mg A1PI in equilibration buffer; conditions: for % of Total A1PI Eluted by Fraction (Based on Absorbance at 280 nm), 1M NaCl / % of Total A1PI Eluted by Fraction (Based on Absorbance at 280 nm), 2% Acetic Acid / % of Total A1PI Eluted by Fraction (Based on Absorbance at 280 nm), Flowthrough: 1 mg A1PI; for Percent AlPI Eluted by Fraction, 1M NaCl / Percent AlPI Eluted by Fraction, 2% Acetic Acid / Percent AlPI Eluted by Fraction, Flowthrough: 1 mg AlPI
Summary of the method: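 Percent of total eluted A1PI per fraction (flowthrough, NaCl steps, 2% acetic acid) determined by A280 integration or immunonephelometry. Columns of peptide-derivatized A-Totda-Toyopearl resin (0.1 mmole/g) received 1 mg A1PI at 4 °C or 20 °C, flow 865 or 523 μl/min.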

[4] = 1 ml dialyzed Eff. II+III (ethanol removed)
[5] = A1PI, 1 ml dialyzed Eff. II+III
[6] = peptide density 6 μmol/g, 4° C.
[7] = peptide density 6 μmol/g, 20° C.
[8] = peptide density 17 μmol/g, 4° C.
[9] = peptide density 17 μmol/g, 20° C.
[10] = peptide density 25 μmol/g, 4° C.
[11] = peptide density 25 μmol/g, 20° C.
[12] = peptide density 39 μmol/g, 4° C.
[13] = peptide density 39 μmol/g, 20° C.
[14] = peptide density 54 μmol/g, 4° C.
[15] = peptide density 54 μmol/g, 20° C.
[16] = peptide density 58 μmol/g, 4° C.
[17] = peptide density 58 μmol/g, 20° C.
[18] = peptide density 99 μmol/g, 4° C.
[19] = peptide density 99 μmol/g, 20° C.
[20] = peptide density 135 μmol/g, 4° C.
[21] = peptide density 135 μmol/g, 20° C.
[22] = sequence truncations, 4° C., immunonephelometry
[23] = sequence truncations, 20° C., immunonephelometry

T1 sequence (P01009 25-418): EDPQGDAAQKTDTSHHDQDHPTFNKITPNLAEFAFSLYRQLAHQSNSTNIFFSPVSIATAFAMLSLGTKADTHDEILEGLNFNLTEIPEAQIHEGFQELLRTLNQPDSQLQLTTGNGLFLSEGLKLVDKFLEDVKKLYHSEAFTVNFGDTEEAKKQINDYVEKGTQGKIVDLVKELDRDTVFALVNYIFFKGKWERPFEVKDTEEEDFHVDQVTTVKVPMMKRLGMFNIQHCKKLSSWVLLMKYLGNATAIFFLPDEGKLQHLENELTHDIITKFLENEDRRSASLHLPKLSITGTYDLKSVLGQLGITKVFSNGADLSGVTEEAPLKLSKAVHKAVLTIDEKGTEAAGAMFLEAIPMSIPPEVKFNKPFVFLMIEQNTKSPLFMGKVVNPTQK

Mass A1PI per Eluate Fraction, 1M NaCl (A1PI [1]; [4]): 0.09 mg
Mass A1PI per Eluate Fraction, 2% Acetic Acid (A1PI [1]; [4]): 0.37 mg
Mass A1PI per Eluate Fraction, Flowthrough (A1PI [1]; [4]): 0.25 mg
Percent Eluted by Fraction, 1M NaCl (A1PI [1]; [5]): 13%
Percent Eluted by Fraction, 2% Acetic Acid (A1PI [1]; [5]): 51%
Percent Eluted by Fraction, Flowthrough (A1PI [1]; [5]): 36%
Mass Protein per Eluate Fraction, 1M NaCl (A1PI [2]; Table 10, 4° C.): 0.05 mg
Mass Protein per Eluate Fraction, 2% Acetic Acid (A1PI [2]; Table 10, 4° C.): 0.61 mg
Mass Protein per Eluate Fraction, Flow (A1PI [2]; Table 10, 4° C.): 0.13 mg
Percent Eluted by Fraction, 1M NaCl (A1PI [2]; Table 10, 4° C.): 7%
Percent Eluted by Fraction, 2% Acetic Acid (A1PI [2]; Table 10, 4° C.): 77%
Percent Eluted by Fraction, 3M NaCl (A1PI [2]; Table 10, 4° C.): 0%
Percent Eluted by Fraction, Flow (A1PI [2]; Table 10, 4° C.): 16%
Mass Protein per Eluate Fraction, 1M NaCl (A1PI [2]; Table 10, 20° C.): 0.02 mg
Mass Protein per Eluate Fraction, 2% Acetic Acid (A1PI [2]; Table 10, 20° C.): 0.60 mg
Mass Protein per Eluate Fraction, Flow (A1PI [2]; Table 10, 20° C.): 0.17 mg
Percent Eluted by Fraction, 1M NaCl (A1PI [2]; Table 10, 20° C.): 2%
Percent Eluted by Fraction, 2% Acetic Acid (A1PI [2]; Table 10, 20° C.): 76%
Percent Eluted by Fraction, 3M NaCl (A1PI [2]; Table 10, 20° C.): 0%
Percent Eluted by Fraction, Flow (A1PI [2]; Table 10, 20° C.): 22%
Mass Protein per Eluate Fraction, 1M NaCl (A1PI [2]; Table 19, 4° C.): 0.05 mg
Mass Protein per Eluate Fraction, 2% Acetic Acid (A1PI [2]; Table 19, 4° C.): 0.61 mg
Mass Protein per Eluate Fraction, Flow (A1PI [2]; Table 19, 4° C.): 0.13 mg
Percent Eluted by Fraction, 2% Acetic Acid (A1PI [2]; Table 19, 4° C.): 77%
Percent Eluted by Fraction, 3M NaCl (A1PI [2]; Table 19, 4° C.): 0%
Percent Eluted by Fraction, Flow (A1PI [2]; Table 19, 4° C.): 16%
Mass Protein per Eluate Fraction, 1M NaCl (A1PI [2]; Table 19, 20° C.): 0.02 mg
Mass Protein per Eluate Fraction, 2% Acetic Acid (A1PI [2]; Table 19, 20° C.): 0.60 mg
Mass Protein per Eluate Fraction, Flow (A1PI [2]; Table 19, 20° C.): 0.17 mg
Percent Eluted by Fraction, 2% Acetic Acid (A1PI [2]; Table 19, 20° C.): 76%
Percent Eluted by Fraction, 3M NaCl (A1PI [2]; Table 19, 20° C.): 0%
Percent Eluted by Fraction, Flow (A1PI [2]; Table 19, 20° C.): 22%
% of Total A1PI Eluted by Fraction (Based on Absorbance at 280 nm), 1M NaCl (A1PI [3]; Trp position mutations, 4° C.): 3%
% of Total A1PI Eluted by Fraction (Based on Absorbance at 280 nm), 2% Acetic Acid (A1PI [3]; Trp position mutations, 4° C.): 97%
% of Total A1PI Eluted by Fraction (Based on Absorbance at 280 nm), Flowthrough (A1PI [3]; Trp position mutations, 4° C.): 0%
% of Total A1PI Eluted by Fraction (Based on Absorbance at 280 nm), 1M NaCl (A1PI [3]; Trp position mutations, 20° C.): 8%
% of Total A1PI Eluted by Fraction (Based on Absorbance at 280 nm), 2% Acetic Acid (A1PI [3]; Trp position mutations, 20° C.): 92%
% of Total A1PI Eluted by Fraction (Based on Absorbance at 280 nm), Flowthrough (A1PI [3]; Trp position mutations, 20° C.): 0%
% of Total A1PI Eluted by Fraction (Based on Absorbance at 280 nm), 1M NaCl (A1PI [3]; VIFLVR point mutations, 4° C.): 3%
% of Total A1PI Eluted by Fraction (Based on Absorbance at 280 nm), 2% Acetic Acid (A1PI [3]; VIFLVR point mutations, 4° C.): 97%
% of Total A1PI Eluted by Fraction (Based on Absorbance at 280 nm), Flowthrough (A1PI [3]; VIFLVR point mutations, 4° C.): 0%
% of Total A1PI Eluted by Fraction (Based on Absorbance at 280 nm), 1M NaCl (A1PI [3]; VIFLVR point mutations, 20° C.): 8%
% of Total A1PI Eluted by Fraction (Based on Absorbance at 280 nm), 2% Acetic Acid (A1PI [3]; VIFLVR point mutations, 20° C.): 92%
% of Total A1PI Eluted by Fraction (Based on Absorbance at 280 nm), Flowthrough (A1PI [3]; VIFLVR point mutations, 20° C.): 0%
Percent AlPI Eluted by Fraction, 1M NaCl (A1PI [3]; [6]): 21%
Percent AlPI Eluted by Fraction, 2% Acetic Acid (A1PI [3]; [6]): 0%
Percent AlPI Eluted by Fraction, Flowthrough (A1PI [3]; [6]): 87%
Percent AlPI Eluted by Fraction, 1M NaCl (A1PI [3]; [7]): 13%
Percent AlPI Eluted by Fraction, 2% Acetic Acid (A1PI [3]; [7]): 0%
Percent AlPI Eluted by Fraction, Flowthrough (A1PI [3]; [7]): 79%
Percent AlPI Eluted by Fraction, 1M NaCl (A1PI [3]; [8]): 10%
Percent AlPI Eluted by Fraction, 2% Acetic Acid (A1PI [3]; [8]): 2%
Percent AlPI Eluted by Fraction, Flowthrough (A1PI [3]; [8]): 80%
Percent AlPI Eluted by Fraction, 1M NaCl (A1PI [3]; [9]): 18%
Percent AlPI Eluted by Fraction, 2% Acetic Acid (A1PI [3]; [9]): 22%
Percent AlPI Eluted by Fraction, Flowthrough (A1PI [3]; [9]): 68%
Percent AlPI Eluted by Fraction, 1M NaCl (A1PI [3]; [10]): 1%
Percent AlPI Eluted by Fraction, 2% Acetic Acid (A1PI [3]; [10]): 43%
Percent AlPI Eluted by Fraction, Flowthrough (A1PI [3]; [10]): 57%
Percent AlPI Eluted by Fraction, 1M NaCl (A1PI [3]; [11]): 0%
Percent AlPI Eluted by Fraction, 2% Acetic Acid (A1PI [3]; [11]): 72%
Percent AlPI Eluted by Fraction, Flowthrough (A1PI [3]; [11]): 28%
Percent AlPI Eluted by Fraction, 1M NaCl (A1PI [3]; [12]): 4%
Percent AlPI Eluted by Fraction, 2% Acetic Acid (A1PI [3]; [12]): 96%
Percent AlPI Eluted by Fraction, Flowthrough (A1PI [3]; [12]): 0%
Percent AlPI Eluted by Fraction, 1M NaCl (A1PI [3]; [13]): 0%
Percent AlPI Eluted by Fraction, 2% Acetic Acid (A1PI [3]; [13]): 100%
Percent AlPI Eluted by Fraction, Flowthrough (A1PI [3]; [13]): 0%
Percent AlPI Eluted by Fraction, 1M NaCl (A1PI [3]; [14]): 0%
Percent AlPI Eluted by Fraction, 2% Acetic Acid (A1PI [3]; [14]): 100%
Percent AlPI Eluted by Fraction, Flowthrough (A1PI [3]; [14]): 0%
Percent AlPI Eluted by Fraction, 1M NaCl (A1PI [3]; [15]): 0%
Percent AlPI Eluted by Fraction, 2% Acetic Acid (A1PI [3]; [15]): 100%
Percent AlPI Eluted by Fraction, Flowthrough (A1PI [3]; [15]): 0%
Percent AlPI Eluted by Fraction, 1M NaCl (A1PI [3]; [16]): 4%
Percent AlPI Eluted by Fraction, 2% Acetic Acid (A1PI [3]; [16]): 96%
Percent AlPI Eluted by Fraction, Flowthrough (A1PI [3]; [16]): 0%
Percent AlPI Eluted by Fraction, 1M NaCl (A1PI [3]; [17]): 0%
Percent AlPI Eluted by Fraction, 2% Acetic Acid (A1PI [3]; [17]): 100%
Percent AlPI Eluted by Fraction, Flowthrough (A1PI [3]; [17]): 0%
Percent AlPI Eluted by Fraction, 1M NaCl (A1PI [3]; [18]): 0%
Percent AlPI Eluted by Fraction, 2% Acetic Acid (A1PI [3]; [18]): 100%
Percent AlPI Eluted by Fraction, Flowthrough (A1PI [3]; [18]): 0%
Percent AlPI Eluted by Fraction, 1M NaCl (A1PI [3]; [19]): 0%
Percent AlPI Eluted by Fraction, 2% Acetic Acid (A1PI [3]; [19]): 93%
Percent AlPI Eluted by Fraction, Flowthrough (A1PI [3]; [19]): 7%
Percent AlPI Eluted by Fraction, 1M NaCl (A1PI [3]; [20]): 0%
Percent AlPI Eluted by Fraction, 2% Acetic Acid (A1PI [3]; [20]): 100%
Percent AlPI Eluted by Fraction, Flowthrough (A1PI [3]; [20]): 0%
Percent AlPI Eluted by Fraction, 1M NaCl (A1PI [3]; [21]): 0%
Percent AlPI Eluted by Fraction, 2% Acetic Acid (A1PI [3]; [21]): 95%
Percent AlPI Eluted by Fraction, Flowthrough (A1PI [3]; [21]): 5%
Percent AlPI Eluted by Fraction, 1M NaCl (A1PI [3]; sequence order, 4° C.): 3%
Percent AlPI Eluted by Fraction, 2% Acetic Acid (A1PI [3]; sequence order, 4° C.): 97%
Percent AlPI Eluted by Fraction, Flowthrough (A1PI [3]; sequence order, 4° C.): 0%
Percent AlPI Eluted by Fraction, 1M NaCl (A1PI [3]; sequence order, 20° C.): 7%
Percent AlPI Eluted by Fraction, 2% Acetic Acid (A1PI [3]; sequence order, 20° C.): 93%
Percent AlPI Eluted by Fraction, Flowthrough (A1PI [3]; sequence order, 20° C.): 0%
Percent AlPI Eluted by Fraction, 1M NaCl (A1PI [3]; [22]): 3%
Percent AlPI Eluted by Fraction, 2% Acetic Acid (A1PI [3]; [22]): 97%
Percent AlPI Eluted by Fraction, Flowthrough (A1PI [3]; [22]): 0%
Percent AlPI Eluted by Fraction, 1M NaCl (A1PI [3]; [23]): 7%
Percent AlPI Eluted by Fraction, 2% Acetic Acid (A1PI [3]; [23]): 93%
Percent AlPI Eluted by Fraction, Flowthrough (A1PI [3]; [23]): 0%
Substance: VIFLVR
